The text below walks through data of article PMC11171812.

One may read the stoichiometry N as a count of units in the complex or per binding partner.

The experiment concerns the target recombinant Plasmodium knowlesi lactate dehydrogenase (Plasmodium knowlesi). Put plainly: native gel or EMSA; PAGE under native (non-reducing) conditions, 2 ug purified PkLDH in native sample buffer without SDS, 10% polyacrylamide gel without SDS, Coomassie Brilliant Blue R-250; single band between 135 and 180 kDa (monomer ~35.0 kDa on SDS-PAGE). In general terms: Mobility shift assays separate free from complexed probe on a gel.

Take “recombinant Plasmodium knowlesi lactate dehydrogenase (enzyme)”: the stoichiometry N is 4.
